Laboratory results as given in the supplement of paper PMC10567573.

B1: GAGE1 (parent)
chain: QPPEMIGPMRPEQFSDEVEPATPE
B2: SPRY1 (parent)
chain: WIHRPGCRCKNSNTVYCKLESCPS

Variants of: B1
Test: protein stability index of a GFP-peptide fusion (GPS, HEK-293T) (PSI 1-6); higher = more stable
Conditions: c terminus: a fixed tail appended
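Note: lentivirally expressed fusions sorted by FACS into six bins by GFP to DsRed ratio, PSI derived from sequencing read proportions per bin multiplied by bin number.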

Protein stability index: each site, then its substitutions
P2: L 4.88, H 5.25, W 4.48, N 5.34, A 4.8, S 4.65, E 4.88, K 4.99, T 5.09, Y 4.8, I 4.28, F 5.11, M 4.59, C 5.32, Q 4.64, G 5.6, D 4.87, V 4.4, R 4.8
Q1: R 5.04, C 5.33, L 5.07, G 4.64, N 5.06, H 5.06, S 4.89, M 5.27, E 5.01, Y 4.8, D 5.42, K 4.57, T 4.94, A 4.84, I 4.78, W 5.49, F 4.95, V 4.68
I6: P 5.52, E 5.81, C 5.91, D 5.79, K 5.78, M 5.59, L 5.64, G 5.45, Q 5.32, R 5.86, S 6, A 5.59, N 5.72, F 5.89, H 5.72
E4: K 5.46, G 5.72, N 5.48, R 5.74, D 5.65, T 5.56, L 5.54, F 5.62, A 5.75, I 5.52, S 5.2, M 5.65, Q 5.68, Y 5.75, P 5.56, W 5.61, H 5.6, C 5.58, V 5.41
M5: K 5.27, G 5.45, I 4.57, F 5.32, Y 4.99, C 4.73, E 5.15, T 5.19, N 5, S 3.55, Q 5.25, W 5.54, A 5.68, P 5.9, L 4.55, R 5.81, V 4.27, H 5.5, D 5.02
P3: E 5.63, M 5.76, Q 5.51, Y 5.32, T 5.57, W 5.23, V 4.83, K 5.64, R 5.71, F 5.22, N 5.4, I 4.9, L 4.76, H 5.52, C 5.44, G 5.17, S 5.26, A 5.73, D 5.75

Variants of: B2
Test: as above
Conditions: c terminus: a fixed tail appended

Protein stability index, by site and new letter:
L19: C 3.1, T 2.44, K 2.46, Y 2.49, A 3, I 1.76, R 2.73, M 2.37, F 2.06, P 2.01, W 2.16, V 2, G 2.68, N 3.33, Q 2.59, H 1.89, D 3.51
Y16: S 2.92, G 2.75, H 2.65, N 3.56, P 2.56, K 2.05, F 1.74, C 2.69, D 2.91, E 3.28, A 3.71, L 2.28, M 2.02, I 1.87, V 2.91, W 2.68, Q 2.46
S21: P 2.74, I 2.67, N 2.63, V 2.09, G 2.22, C 1.8, L 1.7, Q 2.14, A 2.13, F 2.56, R 2.17, T 2.17, W 2.75, D 2.13, E 2.4, Y 2.04, M 1.99, K 1.79, H 2
N13: A 1.92, V 2.04, W 2.81, S 2.06, H 1.91, T 2.4, E 2.64, C 2.1, P 2.36, M 2.74, F 2.3, I 1.67, D 3.17, L 2.31, G 2.23, K 1.17, Q 2.26, Y 2.73, R 1.88
S12: R 2.03, V 2.2, Y 1.97, W 1.73, T 2.28
E20: F 2.37, I 1.5, M 1.4, C 2.41, G 2.21, T 2.33, S 2.77, Q 2.12, H 1.78, Y 2.61, P 1.92, N 2.13, V 1.77, K 2.07, A 1.84, R 2.91, D 2.26, L 2.06
C22: M 1.53, T 2.07, H 2.01, K 1.88, Y 2.44, L 2.03, I 1.84, G 2.29, E 2.02, V 2.52, A 3.24, D 1.98, Q 1.98, S 2.26, F 1.8, P 2.68, N 1.9, R 3.31, W 1.83
T14: A 2.89, P 1.79, H 1.99, S 2.59, N 2.78, C 2.56, K 1.92, L 2.08, I 2.6, W 1.85, E 2.84, G 2.8, F 1.9, Q 2.87, D 3.07, Y 1.84, M 1.97, V 1.86, R 1.54
V15: L 2.34, R 2.67, H 2.06, Q 2.65, Y 1.6, A 2.41, P 3.11, G 2.69, K 2.18, I 2.14, E 2.49, D 3.14, W 2.92, M 1.74, T 3.03, C 2.42, F 2.37, S 2.35, N 2.68
K18: A 1.91, M 2.46, T 2.55, Q 2.25, F 1.74, H 2.1, Y 1.73, P 2.03, C 2.72, W 1.63, N 2.66, G 2.58, S 2.28, L 1.8, D 3.3, R 2.09, V 1.7, I 1.68
S24: C 2.5, M 2.37, V 2.5, P 2.16, I 2.29, T 2.1, N 2.1, H 2.63, W 3.62, Y 3.13, F 2.09, A 2.25, G 2.1, K 2.05, L 2, Q 2.13, D 3.1, R 1.61, E 2.52
C17: H 2.3, P 2.1, T 1.65, I 2.46, D 1.99, A 1.44, E 2.39, K 2.42, L 1.58, N 1.51, F 2.98, M 2.21, Q 1.71, G 2.81, Y 1.65, S 2.13, V 3.78
P23: N 2.43, Y 1.99, F 3.63, H 2.23, Q 2.41, E 2.03, G 2.84, M 1.56, I 1.32, D 3.04, R 1.93, T 1.83, V 1.47, S 2.9, A 2.29, L 1.71, K 2.15, C 2.43, W 2.35
